Source: patent US20250163140A1 (Kyowa Kirin, published 2025)

Legend:
[1] = molecular target: T1, human FcRn (human FcRn-His tag with human β2 microglobulin) (human, UniProt P55899 24-297; P61769 21-119); experiment: SPR pH 6, FcRn-His captured by anti-His, antibody analyte
T1 construct: also called h FcRn; hFcRn

[2] = molecular target: T2, monkey FcRn (monkey FcRn-His tag with monkey β2 microglobulin) (cynomolgus monkey, UniProt Q8SPV9 24-297; Q8SPW0 21-119); experiment: as above
T2 construct: also called cyno FcRn; cynomolgus monkey FcRn extracellular domain His-tag body
T2 sequence (Q8SPV9 other isoform, or with tags, fused parts or gaps limits assumed, chain 1 of 2): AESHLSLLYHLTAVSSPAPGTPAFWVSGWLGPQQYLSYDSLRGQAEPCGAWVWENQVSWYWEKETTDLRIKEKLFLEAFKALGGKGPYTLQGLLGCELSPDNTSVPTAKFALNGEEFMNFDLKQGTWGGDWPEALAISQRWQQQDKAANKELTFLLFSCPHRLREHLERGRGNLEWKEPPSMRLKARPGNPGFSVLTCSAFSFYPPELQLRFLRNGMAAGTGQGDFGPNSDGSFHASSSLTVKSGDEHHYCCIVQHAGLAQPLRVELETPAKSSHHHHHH
T2 sequence (Q8SPW0 21-119 limits assumed, chain 2 of 2): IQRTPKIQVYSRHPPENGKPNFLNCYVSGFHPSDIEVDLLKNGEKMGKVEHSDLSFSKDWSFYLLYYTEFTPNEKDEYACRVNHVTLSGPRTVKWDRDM

| Kd [1] | Kd [2] | Binder |
| --- | --- | --- |
| 159 nM | 115 nM | antibody A_YTE (antibody, IgG1, IgG1 CH with M252Y/S254T/T256E (EU index); not shown: human kappa chain constant region; copies: 2 + 2) heavy: QVQLVQSGAEVKKPGASVKVSCKASGYTFTNHYMHWVRQAPGQGLEWMGIINPISGSTSNAQKFQGRVTMTRDTSTSTVYMELSSLRSEDTAVYYCARDIVDAFDFWGQGTMVTVSSASTKGPSVFPLAPSSKSTSGGTAALGCLVKDYFPEPVTVSWNSGALTSGVHTFPAVLQSSGLYSLSSVVTVPSSSLGTQTYICNVNHKPSNTKVDKKVEPKSCDKTHTCPPCPAPELLGGPSVFLFPPKPKDTLYITREPEVTCVVVDVSHEDPEVKFNWYVDGVEVHNAKTKPREEQYNSTYRVVSVLTVLHQDWLNGKEYKCKVSNKALPAPIEKTISKAKGQPREPQVYTLPPSRDELTKNQVSLTCLVKGFYPSDIAVEWESNGQPENNYKTTPPVLDSDGSFFLYSKLTVDKSRWQQGNVFSCSVMHEALHNHYTQKSLSLSPGK light: AIQLTQSPSSLSASVGDRVTITCRASQGISSALVWYQQKPGKAPKLLIYDASSLESGVPSRFSGSGSGTDFTLTISSLQPEDFATYYCQQFNDYFTFGPGTKVDIK |
| 624 nM | 233 nM | antibody A_G2 (antibody, human IgG2, domain: CH; CH of antibody A replaced by a CH of human IgG2; also called A2_G2; not shown: human kappa chain constant region; copies: 2 + 2) heavy: QVQLVQSGAEVKKPGASVKVSCKASGYTFTNHYMHWVRQAPGQGLEWMGIINPISGSTSNAQKFQGRVTMTRDTSTSTVYMELSSLRSEDTAVYYCARDIVDAFDFWGQGTMVTVSSASTKGPSVFPLAPCSRSTSESTAALGCLVKDYFPEPVTVSWNSGALTSGVHTFPAVLQSSGLYSLSSVVTVPSSNFGTQTYTCNVDHKPSNTKVDKTVERKCCVECPPCPAPPVAGPSVFLFPPKPKDTLMISRTPEVTCVVVDVSHEDPEVQFNWYVDGVEVHNAKTKPREEQFNSTFRVVSVLTVVHQDWLNGKEYKCKVSNKGLPAPIEKTISKTKGQPREPQVYTLPPSREEMTKNQVSLTCLVKGFYPSDIAVEWESNGQPENNYKTTPPMLDSDGSFFLYSKLTVDKSRWQQGNVFSCSVMHEALHNHYTQKSLSLSPGK light: AIQLTQSPSSLSASVGDRVTITCRASQGISSALVWYQQKPGKAPKLLIYDASSLESGVPSRFSGSGSGTDFTLTISSLQPEDFATYYCQQFNDYFTFGPGTKVDIK |
| 286 nM | 133 nM | antibody A_G2_A (antibody, human IgG2, name in EU numbering, domain: CH; Human IgG2 CH with modification (10-3), EU index; not shown: human kappa chain constant region; copies: 2 + 2) heavy: QVQLVQSGAEVKKPGASVKVSCKASGYTFTNHYMHWVRQAPGQGLEWMGIINPISGSTSNAQKFQGRVTMTRDTSTSTVYMELSSLRSEDTAVYYCARDIVDAFDFWGQGTMVTVSSASTKGPSVFPLAPCSRSTSESTAALGCLVKDYFPEPVTVSWNSGALTSGVHTFPAVLQSSGLYSLSSVVTVPSSNFGTQTYTCNVDHKPSNTKVDKTVERKCCVECPPCPAPPVAGPSVFLFPPKPKDTLMISRTPEVTCVVVDVSHEDPEVQFNWYVDGVEVHNAKTKPREEQFNSTFRVVSVLTVVHQDWLNGKEYKCKVSNKGLPAPIEKTISKTKGQPREPQVYTLPPSREEMTKNQVSLTCLVKGFYPSDISVEWESNGQPENNYKTTPPMLDSDGSFFLYSKLTVDKSRWQQGNVFSCSVMHEALHAHYTQKSLSLSPGK light: AIQLTQSPSSLSASVGDRVTITCRASQGISSALVWYQQKPGKAPKLLIYDASSLESGVPSRFSGSGSGTDFTLTISSLQPEDFATYYCQQFNDYFTFGPGTKVDIK |
| 234 nM | 78.2 nM | antibody A_G2_P (antibody, human IgG2, name in EU numbering, domain: CH; Human IgG2 CH with modification (10-4), EU index; not shown: human kappa chain constant region; copies: 2 + 2) heavy: QVQLVQSGAEVKKPGASVKVSCKASGYTFTNHYMHWVRQAPGQGLEWMGIINPISGSTSNAQKFQGRVTMTRDTSTSTVYMELSSLRSEDTAVYYCARDIVDAFDFWGQGTMVTVSSASTKGPSVFPLAPCSRSTSESTAALGCLVKDYFPEPVTVSWNSGALTSGVHTFPAVLQSSGLYSLSSVVTVPSSNFGTQTYTCNVDHKPSNTKVDKTVERKCCVECPPCPAPPVAGPSVFLFPPKPKDTLMISRTPEVTCVVVDVSHEDPEVQFNWYVDGVEVHNAKTKPREEQFNSTFRVVSVLTPVHQDWLNGKEYKCKVSNKGLPAPIEKTISKTKGQPREPQVYTLPPSREEMTKNQVSLTCLVKGFYPSDISVEWESNGQPENNYKTTPPMLDSDGSFFLYSKLTVDKSRWQQGNVFSCSVMHEALHNHYTQKSLSLSPGK light: AIQLTQSPSSLSASVGDRVTITCRASQGISSALVWYQQKPGKAPKLLIYDASSLESGVPSRFSGSGSGTDFTLTISSLQPEDFATYYCQQFNDYFTFGPGTKVDIK |
